# Biological target: human lymphotoxin (TNFβ) (human) (UniProt P01374)
# Assay: cell-based or functional assay
# human lymphotoxin (TNFβ) (human), sequence (P01374 35-205 limits assumed): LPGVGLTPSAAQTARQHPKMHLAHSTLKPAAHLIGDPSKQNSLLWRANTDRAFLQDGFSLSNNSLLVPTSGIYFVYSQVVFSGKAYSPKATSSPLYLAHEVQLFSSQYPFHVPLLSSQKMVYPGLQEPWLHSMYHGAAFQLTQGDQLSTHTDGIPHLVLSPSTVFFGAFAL
substance,measurement,value
p55-sf2 (p55 TNF receptor / IgG1 heavy chain single fusion with truncated light chain JCK) (from UniProt P19438) (Fc fusion),"amount needed for the same inhibition of TNFβ cytotoxicity, against p75P-sf2 (fold (against p75P-sf2))",3

# Reference: US20030204066A1
